# Results: article PMC10076317, “Extended DNA threading through a dual-engine motor module of the activating signal co-integrator 1 complex” (Nature Communications, 2023)
# T1: TRIP4 (UniProt Q15650 1-581)
# T1 sequence: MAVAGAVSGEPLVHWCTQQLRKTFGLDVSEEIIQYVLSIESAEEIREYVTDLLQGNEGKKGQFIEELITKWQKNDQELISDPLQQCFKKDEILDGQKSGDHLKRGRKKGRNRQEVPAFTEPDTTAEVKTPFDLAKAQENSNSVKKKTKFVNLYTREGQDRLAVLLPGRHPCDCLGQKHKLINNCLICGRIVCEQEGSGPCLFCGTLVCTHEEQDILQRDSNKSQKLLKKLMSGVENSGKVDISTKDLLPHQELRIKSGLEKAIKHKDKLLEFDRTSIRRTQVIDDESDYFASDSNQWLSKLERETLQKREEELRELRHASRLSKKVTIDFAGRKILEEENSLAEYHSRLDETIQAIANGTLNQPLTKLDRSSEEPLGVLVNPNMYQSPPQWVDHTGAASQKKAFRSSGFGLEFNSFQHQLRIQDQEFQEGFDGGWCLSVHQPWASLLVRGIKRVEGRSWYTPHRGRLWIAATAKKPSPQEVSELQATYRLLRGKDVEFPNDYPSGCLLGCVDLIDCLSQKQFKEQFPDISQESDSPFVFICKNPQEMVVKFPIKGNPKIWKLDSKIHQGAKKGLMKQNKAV
# B1: TRIP4, full length, co-produced with ASCC3^HR in insect cells (natural protein, human, UniProt Q15650 1-581, looked up)
# chain: T1 sequence
# B2: TRIP4^152-581 (domain or fragment, human, UniProt Q15650 152-581, looked up)
# chain: LYTREGQDRLAVLLPGRHPCDCLGQKHKLINNCLICGRIVCEQEGSGPCLFCGTLVCTHEEQDILQRDSNKSQKLLKKLMSGVENSGKVDISTKDLLPHQELRIKSGLEKAIKHKDKLLEFDRTSIRRTQVIDDESDYFASDSNQWLSKLERETLQKREEELRELRHASRLSKKVTIDFAGRKILEEENSLAEYHSRLDETIQAIANGTLNQPLTKLDRSSEEPLGVLVNPNMYQSPPQWVDHTGAASQKKAFRSSGFGLEFNSFQHQLRIQDQEFQEGFDGGWCLSVHQPWASLLVRGIKRVEGRSWYTPHRGRLWIAATAKKPSPQEVSELQATYRLLRGKDVEFPNDYPSGCLLGCVDLIDCLSQKQFKEQFPDISQESDSPFVFICKNPQEMVVKFPIKGNPKIWKLDSKIHQGAKKGLMKQNKAV
# notes: source: E. coli BL21 (DE3), purified (Ni-NTA, TEV, heparin, SEC); not shown: His6, N-terminal, cleaved
# B3: TRIP4^152-230 (domain or fragment, human, UniProt Q15650 152-230, looked up)
# chain: LYTREGQDRLAVLLPGRHPCDCLGQKHKLINNCLICGRIVCEQEGSGPCLFCGTLVCTHEEQDILQRDSNKSQKLLKKL
# notes: TRIP4, human, residues 152-230 (ZnF domain); also called ZnF domain alone; source: E. coli BL21 (DE3), purified (Ni-NTA, TEV, SEC); not shown: His6, N-terminal, cleaved
# B4: ALKBH3 (alpha-ketoglutarate/iron-dependent dioxygenase, DNA/RNA dealkylase), full length (enzyme, human, UniProt Q96Q83 1-286, looked up)
# chain: MEEKRRRARVQGAWAAPVKSQAIAQPATTAKSHLHQKPGQTWKNKEHHLSDREFVFKEPQQVVRRAPEPRVIDREGVYEISLSPTGVSRVCLYPGFVDVKEADWILEQLCQDVPWKQRTGIREDITYQQPRLTAWYGELPYTYSRITMEPNPHWHPVLRTLKNRIEENTGHTFNSLLCNLYRNEKDSVDWHSDDEPSLGRCPIIASLSFGATRTFEMRKKPPPEENGDYTYVERVKIPLDHGTLLIMEGATQADWQHRVPKEYHSREPRVNLTFRTVYPDPRGAPW
# notes: ALKBH3, human, full length, amplified from a cDNA library of human HeLa cells, pETM-11; source: E. coli C2566, purified (Ni-NTA, TEV, heparin, SEC); not shown: His6, N-terminal, cleaved
# B5: T48 (Cy5) (ssDNA)
# DNA: TTTTTTTTTTTTTTTTTTTTTTTTTTTTTTTTTTTTTTTTTTTTTTTT
# How the values were obtained:
# [1] = molecular target: T2, ASCC3 helicase region (ASCC3^HR, residues 401-2202) (human, UniProt Q8N3C0 401-2202); assay: cell-based or functional assay
# T2 sequence (Q8N3C0 401-2202): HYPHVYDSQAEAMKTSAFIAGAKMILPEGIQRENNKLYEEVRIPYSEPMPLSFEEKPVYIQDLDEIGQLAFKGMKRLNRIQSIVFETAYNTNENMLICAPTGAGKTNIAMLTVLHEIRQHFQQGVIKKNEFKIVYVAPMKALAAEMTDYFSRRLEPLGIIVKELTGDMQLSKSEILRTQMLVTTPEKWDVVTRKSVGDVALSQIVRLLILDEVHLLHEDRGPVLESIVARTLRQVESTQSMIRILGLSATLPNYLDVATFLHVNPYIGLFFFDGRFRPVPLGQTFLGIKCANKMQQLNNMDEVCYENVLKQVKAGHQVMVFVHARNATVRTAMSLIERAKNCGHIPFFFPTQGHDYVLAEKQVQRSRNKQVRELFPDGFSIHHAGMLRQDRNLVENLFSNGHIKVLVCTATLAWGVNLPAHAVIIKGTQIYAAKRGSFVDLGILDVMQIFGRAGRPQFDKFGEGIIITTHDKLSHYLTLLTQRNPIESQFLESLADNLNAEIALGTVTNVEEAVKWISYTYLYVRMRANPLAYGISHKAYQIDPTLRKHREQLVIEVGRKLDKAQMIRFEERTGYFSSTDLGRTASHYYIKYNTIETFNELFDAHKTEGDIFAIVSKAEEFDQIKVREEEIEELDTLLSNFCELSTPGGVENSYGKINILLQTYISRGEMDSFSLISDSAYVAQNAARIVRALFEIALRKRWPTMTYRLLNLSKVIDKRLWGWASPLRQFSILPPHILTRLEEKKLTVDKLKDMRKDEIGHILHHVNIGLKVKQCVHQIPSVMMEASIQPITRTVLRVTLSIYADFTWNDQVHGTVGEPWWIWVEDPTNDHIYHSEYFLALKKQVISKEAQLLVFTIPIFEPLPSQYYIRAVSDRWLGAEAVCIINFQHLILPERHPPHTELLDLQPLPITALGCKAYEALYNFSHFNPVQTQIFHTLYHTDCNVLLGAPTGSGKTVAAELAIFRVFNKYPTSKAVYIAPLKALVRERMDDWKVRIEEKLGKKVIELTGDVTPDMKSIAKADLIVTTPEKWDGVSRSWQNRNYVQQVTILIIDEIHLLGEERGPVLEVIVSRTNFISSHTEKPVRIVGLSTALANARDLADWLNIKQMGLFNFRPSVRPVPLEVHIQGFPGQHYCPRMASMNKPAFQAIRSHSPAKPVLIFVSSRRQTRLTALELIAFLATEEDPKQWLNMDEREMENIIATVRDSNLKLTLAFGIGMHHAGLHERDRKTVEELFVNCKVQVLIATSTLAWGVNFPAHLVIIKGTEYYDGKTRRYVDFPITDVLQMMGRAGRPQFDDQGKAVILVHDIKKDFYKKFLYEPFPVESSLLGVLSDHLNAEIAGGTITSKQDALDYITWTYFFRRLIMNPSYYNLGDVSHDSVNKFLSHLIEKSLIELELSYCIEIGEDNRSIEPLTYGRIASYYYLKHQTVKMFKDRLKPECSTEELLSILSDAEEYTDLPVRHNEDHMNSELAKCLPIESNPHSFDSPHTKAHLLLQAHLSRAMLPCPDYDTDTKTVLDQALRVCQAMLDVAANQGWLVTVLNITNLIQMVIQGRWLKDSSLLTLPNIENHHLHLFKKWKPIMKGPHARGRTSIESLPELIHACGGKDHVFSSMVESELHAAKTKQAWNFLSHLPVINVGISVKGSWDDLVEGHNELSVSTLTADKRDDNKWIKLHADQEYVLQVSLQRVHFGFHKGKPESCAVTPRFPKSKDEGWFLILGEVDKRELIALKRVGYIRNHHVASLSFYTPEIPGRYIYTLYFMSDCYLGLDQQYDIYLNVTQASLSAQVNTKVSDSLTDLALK
# [2] = molecular target: T2, ASCC3 helicase region (ASCC3^HR, …); assay: SEC; analytical SEC, Superdex 200 3.2/300; 20 mM HEPES-NaOH pH 7.5, 250 mM NaCl, 5% glycerol, 1 mM DTT; 100 pmol ASCC3^HR mixed with other proteins in two to tenfold molar excess in 80 µl, 30 min on ice; fractions by SDS-PAGE; details: both partners purified
# [3] = molecular target: T2, ASCC3 helicase region (ASCC3^HR, …); assay: SEC; analytical SEC for competitive binding, Superdex 200 3.2/300; 120 pmol ASCC3^HR with 360 pmol TRIP4 and/or ALKBH3 in 100 µl, 30 min on ice; fractions by SDS-PAGE, Coomassie; details: both partners purified
# [4] = molecular target: ASCC3HR (human, UniProt Q8N3C0 401-2202); assay: MST; no ATP; Hill fit EC50; MST: 20 mM HEPES-NaOH pH 7.5, 300 mM NaCl, 5% glycerol, 1 mM DTT, room temperature, 50 nM final Cy5-T48; UV cross-linking: 50 mM HEPES-NaOH pH 7.5, 80 mM NaCl; details: protein: recombinant; tags: N-terminal His10, TEV-cleaved; label: 5'-Cy5; single strand
# ASCC3HR, sequence (Q8N3C0 401-2202): as above
# [5] = molecular target: T1, TRIP4; assay: as above; details: protein: recombinant; tags: N-terminal His6, TEV-cleaved; label: 5'-Cy5; single strand
# [6] = molecular target: ASCC3HR;TRIP4 (human;human?, UniProt Q8N3C0;Q15650 401-2202;1-581, |); assay: as above; details: protein: recombinant;recombinant; tags: N-terminal His10, TEV-cleaved;N-terminal His6, TEV-cleaved; copies: 1;1; label: 5'-Cy5; single strand
# ASCC3HR;TRIP4, sequence (Q8N3C0 401-2202, one chain of several): as the sequence (Q8N3C0 401-2202) above
# [7] = molecular target: ASCC3HR;TRIP4 1-230 (human;human?, UniProt Q8N3C0;Q15650 401-2202;1-230, |); assay: as above; details: protein: recombinant;recombinant; tags: N-terminal His10, TEV-cleaved;N-terminal His6, TEV-cleaved; copies: 1;1; label: 5'-Cy5; single strand
# ASCC3HR;TRIP4 1-230, sequence (Q8N3C0 401-2202, one chain of several): as the sequence (Q8N3C0 401-2202) above
binder,measurement,setting,value
B1,"amplitude-weighted DNA unwinding rate constant (kuaw) of ASCC3^HR with TRIP4, stopped-flow fluorescence, no trap (ASCC3^HR alone 0.024 s^-1; stimulated 2.3-fold)",[1],0.054 s⁻¹
B2,binding result,[2],binds
B3,binding result,[2],binds
B4,binding result,[3],binds
B5,apparent K (half saturation),[4],551 ± 194 nM
same,apparent K (half saturation),[5],903 ± 24 nM
same,apparent K (half saturation),[6],53 ± 3 nM
same,apparent K (half saturation),[7],468 ± 63 nM
